Test results published in publication PMC10443397.

Target: triple-phosphorylated Schizosaccharomyces pombe Dss1, fluorescein-labelled on the C-terminal cysteine (S. pombe) (UniProt O14140)
Experiment: MST

B1: FHA domain of Schizosaccharomyces pombe Dma1 (residues 25-160) (domain or fragment)
chain: DKISIRLTNFVGPNAHSFSFDPLVRYWNRKQNNLPIYIGRYTERYNGGDVSAIVFRSKVVSRRHAQIFYENNTWYIQDMGSSSGTFLNHVRLSPPSKTSKPYPISNNDILQLGADYRGGHEVNYRCVRARVELNNS
- Kd: 1300 nM
